Results: US20260028383A1 (KINE BIOTECH, published 2026)
Positions count from the first letter of the chain named. In names and notes the source's numbering stands. Where two headings read alike, the source gives them in different places.

T1: high-affinity IL-2R (containing the α/β/γc-subunits of the IL-2R) expressed on CTLL-2 cells (mouse, UniProt P01590 22-268; P16297 27-539; P34902 23-369)
T1 sequence (looked up) 1: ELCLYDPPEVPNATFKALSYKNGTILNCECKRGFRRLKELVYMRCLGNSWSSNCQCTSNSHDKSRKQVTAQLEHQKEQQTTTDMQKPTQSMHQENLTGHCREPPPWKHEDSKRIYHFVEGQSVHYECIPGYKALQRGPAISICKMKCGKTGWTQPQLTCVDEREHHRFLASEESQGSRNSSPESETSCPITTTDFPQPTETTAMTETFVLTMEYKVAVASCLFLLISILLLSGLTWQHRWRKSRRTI
T1 sequence (looked up) 2: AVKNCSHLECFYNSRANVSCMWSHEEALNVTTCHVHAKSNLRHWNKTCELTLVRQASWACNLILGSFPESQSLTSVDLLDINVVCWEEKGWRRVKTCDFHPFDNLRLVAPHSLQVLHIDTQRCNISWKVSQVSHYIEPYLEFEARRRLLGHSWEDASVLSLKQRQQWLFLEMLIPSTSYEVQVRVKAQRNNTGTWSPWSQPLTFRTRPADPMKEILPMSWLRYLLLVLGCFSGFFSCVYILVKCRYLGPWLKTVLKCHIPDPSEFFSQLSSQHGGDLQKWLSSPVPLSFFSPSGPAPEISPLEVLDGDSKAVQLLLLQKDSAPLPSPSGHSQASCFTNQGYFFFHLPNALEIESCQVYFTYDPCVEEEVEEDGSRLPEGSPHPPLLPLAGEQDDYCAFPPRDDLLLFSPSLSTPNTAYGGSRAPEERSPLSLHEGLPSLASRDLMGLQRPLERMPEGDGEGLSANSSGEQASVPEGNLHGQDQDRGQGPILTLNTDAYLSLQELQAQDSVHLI
T1 sequence (looked up) 3: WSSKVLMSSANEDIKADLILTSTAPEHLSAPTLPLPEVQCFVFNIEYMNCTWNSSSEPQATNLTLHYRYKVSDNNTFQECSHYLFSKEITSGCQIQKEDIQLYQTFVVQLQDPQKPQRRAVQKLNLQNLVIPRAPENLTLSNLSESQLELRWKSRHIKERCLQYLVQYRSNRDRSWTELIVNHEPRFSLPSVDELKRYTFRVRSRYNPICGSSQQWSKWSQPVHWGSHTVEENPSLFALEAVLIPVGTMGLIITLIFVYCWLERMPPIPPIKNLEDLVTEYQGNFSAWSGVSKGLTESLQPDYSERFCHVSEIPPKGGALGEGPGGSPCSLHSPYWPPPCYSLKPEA

T2: intermediate-affinity IL-2R (containing the β/γc-subunits of the IL-2R) expressed on HH cells (human, UniProt P14784 27-551; P31785 23-369)
T2 sequence (looked up) 1: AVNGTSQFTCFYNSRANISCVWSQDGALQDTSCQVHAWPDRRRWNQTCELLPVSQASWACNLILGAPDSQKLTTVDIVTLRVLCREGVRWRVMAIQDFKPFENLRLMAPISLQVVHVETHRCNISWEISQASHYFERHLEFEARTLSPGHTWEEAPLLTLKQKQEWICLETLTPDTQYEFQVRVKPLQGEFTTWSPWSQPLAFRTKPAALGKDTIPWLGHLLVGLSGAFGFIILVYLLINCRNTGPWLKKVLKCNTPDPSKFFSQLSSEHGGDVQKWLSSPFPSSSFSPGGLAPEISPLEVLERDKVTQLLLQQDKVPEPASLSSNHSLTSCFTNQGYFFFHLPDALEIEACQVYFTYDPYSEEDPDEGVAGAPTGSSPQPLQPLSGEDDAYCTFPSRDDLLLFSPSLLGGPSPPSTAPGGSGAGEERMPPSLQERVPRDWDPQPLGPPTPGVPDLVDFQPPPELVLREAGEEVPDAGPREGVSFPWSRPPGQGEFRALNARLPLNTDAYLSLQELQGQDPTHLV
T2 sequence (looked up) 2: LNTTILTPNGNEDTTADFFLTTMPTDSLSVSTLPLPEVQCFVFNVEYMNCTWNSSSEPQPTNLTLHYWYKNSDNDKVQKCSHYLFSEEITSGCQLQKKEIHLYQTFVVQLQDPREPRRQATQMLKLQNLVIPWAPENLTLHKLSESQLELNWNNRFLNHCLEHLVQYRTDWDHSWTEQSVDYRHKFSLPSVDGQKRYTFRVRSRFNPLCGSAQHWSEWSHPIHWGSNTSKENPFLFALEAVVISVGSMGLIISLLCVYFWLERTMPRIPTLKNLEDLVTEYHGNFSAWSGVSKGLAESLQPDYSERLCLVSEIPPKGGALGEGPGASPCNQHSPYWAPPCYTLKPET

B1: IL-2 variant IL-2_#3 (F42V, Y45A, L72N, C125G) (ligand)
chain: APTSSSTKKTQLQLEHLLLDLQMILNGINNYKNPKLTRMLTVKFAMPKKATELKHLQCLEEELKPLEEVLNNAQSKNFHLRPRDLISNINVIVLELKGSETTFMCEYADETATIVEFLNRWITFGQSIISTLT
B2: IL-2 variant IL-2_#8 (F42V, Y45S, L72N, C125G) (ligand)
chain: B1 chain with A45S
B3: IL-2 variant IL-2_#31 (F42A, Y45M, L72N) (ligand)
chain: B1 chain with V42A, A45M, G125C
B4: mutant IL-2, IL-2v (AAG), with F42A, Y45A, and L72G substitutions of IL-2 (F. Hoffmann-La Roche Ltd) (ligand)
chain: B1 chain with V42A, N72G, G125C
B5: IL-2 variant IL-2_#12 (F42C, Y45N, L72V) (ligand)
chain: B1 chain with V42C, A45N, N72V, G125C
B6: IL-2 variant IL-2_#9 (F42H, Y45D, L72I, C125G) (ligand)
chain: B1 chain with V42H, A45D, N72I
B7: IL-2 variant IL-2_#28 (F42A, Y45D, L72D) (ligand)
chain: B1 chain with V42A, A45D, N72D, G125C

What was measured:
Assay in all cases: cell-based or functional assay
[1] = target: high-affinity IL-2R (containing the α/β/γc-subunits of the IL-2R) expressed on CTLL-2 cells (mouse) (UniProt P01590)
[2] = target: high-affinity IL-2R (containing the α/β/γc-subunits of the IL-2R) expressed on CTLL-2 cells (mouse) (UniProt P01590); remark: listed apart in the source
[3] = target: T1, high-affinity IL-2R (containing the …)
[4] = target: T2, intermediate-affinity IL-2R (containing …)
[5] = target: T2, intermediate-affinity IL-2R (containing …); remark: listed apart in the source
[6] = target: T1, high-affinity IL-2R (containing the …); remark: listed apart in the source
[7] = target: T2, intermediate-affinity IL-2R (containing …); remark: listed apart in the source
[8] = target: T2, intermediate-affinity IL-2R (containing …); remark: listed apart in the source
[9] = target: T1, high-affinity IL-2R (containing the …); remark: listed apart in the source
[10] = target: T2, intermediate-affinity IL-2R (containing …); remark: listed apart in the source

Molecule | EC50 of pSTAT-5 induction in CTLL-2 cells (flow cytometry) [3] | EC50 of pSTAT-5 induction in HH cells (flow cytometry) [4] | EC50 (HH/CTLL-2): EC50 on HH cells (intermediate-affinity IL-2R) divided by EC50 on CTLL-2 cells (high-affinity IL-2R) [5] | further results
wild-type IL-2 (proleukin) (from UniProt P60568 21-153) (ligand) | – | – | – | EC50 (CTLL-2): pSTAT-5 induction in CTLL-2 cells (flow cytometry) [1]: 0.2 nM; EC50 of pSTAT-5 induction in CTLL-2 cells (flow cytometry) [1]: 0.17 nM; EC50 of pSTAT-5 induction in CTLL-2 cells (flow cytometry) [2]: 0.231 nM
B1 | 44.1 nM | 9.6 nM | 0.22 ratio | –
B2 | 120 nM | 90.2 nM | 0.75 ratio | –
B3 | – | – | – | EC50 of pSTAT-5 induction in CTLL-2 cells (flow cytometry) [6]: 2.02 nM; EC50 of pSTAT-5 induction in HH cells (flow cytometry) [7]: 0.11 nM; EC50 (HH/CTLL-2): EC50 on HH cells (intermediate-affinity IL-2R) divided by EC50 on CTLL-2 cells (high-affinity IL-2R) [8]: 0.05 ratio
B4 | – | – | – | EC50 (CTLL-2): pSTAT-5 induction in CTLL-2 cells (flow cytometry) [9]: 54.1 nM; EC50 (HH): pSTAT-5 induction in HH cells (flow cytometry) [10]: 2.01 nM; EC50 (HH/CTLL-2): EC50 on HH cells (intermediate-affinity IL-2R) divided by EC50 on CTLL-2 cells (high-affinity IL-2R) [10]: 0.037 ratio
B5 | 2.32 nM | 0.556 nM | 0.24 ratio | –
B6 | 10 nM | 17.9 nM | 1.79 ratio | –
B7 | – | – | – | EC50 of pSTAT-5 induction in CTLL-2 cells (flow cytometry) [6]: 9.56 nM; EC50 of pSTAT-5 induction in HH cells (flow cytometry) [7]: 8.95 nM; EC50 (HH/CTLL-2): EC50 on HH cells (intermediate-affinity IL-2R) divided by EC50 on CTLL-2 cells (high-affinity IL-2R) [8]: 0.94 ratio
